Consider two molecules from patent publication US20260007750A1.

For one data set, the target named is Pak2 kinase (UniProt Q13177). In words: cell-based or functional assay.
Data set [1] addresses HIV-1 Nef protein (wild-type, HIV-1 Clade B).

In the data set with Pak2 kinase, “HIV-1 Nef protein (wild-type, HIV-1 Clade B)” showed a phosphorylation of Pak2 at S55, quantitative phosphoproteomics of CAR T cells stimulated by NALM6 cells (Nef-WT compared to NefAxxA) (log2 fold change) of 2.15 and a phosphorylation of Pak2 at S152, quantitative phosphoproteomics of CAR T cells stimulated by NALM6 cells (Nef-WT compared to NefAxxA) (log2 fold change) of 1.17.

B1: Pak2 kinase (protein)
chain: SDNGELEDKPPAPPVRMSSTIFSTGGKDPLSANHSLKPLPSVPEEKKPRHKIISIFSGTEKGSKKKEKERPEISPPSDFEHTIHVGFDAVTGEFTGMPEQWARLLQTSNITKLEQKKNPQAVLDVLKFYDSNTVKQKYLSFTPPEKDGFPSGTPALNAKGTEAPAVVTEEEDDDEETAPPVIAPRPDHTKSIYTRSVIDPVPAPVGDSHVDGAAKSLDKQKKKTKMTDEEIMEKLRTIVSIGDPKKKYTRYEKIGQGASGTVFTATDVALGQEVAIKQINLQKQPKKELIINEILVMKELKNPNIVNFLDSYLVGDELFVVMEYLAGGSLTDVVTETCMDEAQIAAVCRECLQALEFLHANQVIHRDIKSDNVLLGMEGSVKLTDFGFCAQITPEQSKRSTMVGTPYWMAPEVVTRKAYGPKVDIWSLGIMAIEMVEGEPPYLNENPLRALYLIATNGTPELQNPEKLSPIFRDFLNRCLEMDVEKRGSAKELLQHPFLKLAKPLSSLTPLIMAAKEAMKSNR
For B1, the “Pak2 phosphorylation by gel electrophoresis / Western blot” value was “Nef variants that promote CAR T cell activity in vivo (Nef WT, NefWP and NefD123G) but not NefAxxA expressing CARs also promoted Pak2 phosphorylation” in the data set with NefWP (Nef variant); “Nef variants that promote CAR T cell activity in vivo (Nef WT, NefWP and NefD123G) but not NefAxxA expressing CARs also promoted Pak2 phosphorylation” with NefD123G (Nef variant); “Nef variants that promote CAR T cell activity in vivo (Nef WT, NefWP and NefD123G) but not NefAxxA expressing CARs also promoted Pak2 phosphorylation” in data set [1].
